Laboratory results as given in patent US20200270365A1.

Assays:
[1] = target: biotin-PCSK9-his (human) (UniProt Q8NBP7); assay: competitive ELISA, one antibody coated, biotin-PCSK9-his + 50-fold competing antibody; competitor h011-3133-YTE
[2] = target: biotin-PCSK9-his (human) (UniProt Q8NBP7); assay: competitive ELISA, one antibody coated, biotin-PCSK9-his + 50-fold competing antibody; competitor 21B12 (itself)

Question: With “21B12 (U.S. Pat. No. 8,030,457B2) (antibody)” as the substance, how does the IR (%) [1] read?
Answer: 3.01%

Question: What about the IR (%) [2] of the same substance?
Answer: 97.8%
